Test results: US20240002514A1 (IGM BIOSCIENCES, published 2024)

T1: recombinant human PD-L2 Fc chimera protein (Sino Biological, cat #10292-H02H) (human, UniProt Q9BQ51 20-219)
T1 construct: Fc part of the bought chimera not given
T1 sequence (looked up): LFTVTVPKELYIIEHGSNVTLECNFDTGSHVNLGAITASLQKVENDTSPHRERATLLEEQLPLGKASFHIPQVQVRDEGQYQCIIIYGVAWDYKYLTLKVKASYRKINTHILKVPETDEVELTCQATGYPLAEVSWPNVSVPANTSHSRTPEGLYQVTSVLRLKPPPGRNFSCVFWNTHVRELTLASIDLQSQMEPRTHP


Key:
[1] = biological target: T2, human PD-L1 expressed on the cell surface (CHO cells expressing human PD-L1; Promega CS187103 / 187103 cells) (human, UniProt Q9NZQ7 19-290); test: cell-based or functional assay
[2] = biological target: T2, human PD-L1 expressed on the cell …; test: cell-based or functional assay; remark: listed apart in the source
[3] = biological target: T2, human PD-L1 expressed on the cell …; test: cell-based or functional assay; remark: listed apart in the source
[4] = biological target: T3, recombinant mouse PD-L1 Fc chimera (Sino Biologicals, cat #50010-M02H) (mouse, UniProt Q9EP73 19-238); test: ELISA on directly coated mouse PD-L1 Fc chimera (1 ug/mL), detection anti-human kappa light chain-HRP
T3 construct: Fc part of the bought chimera not given
Experimental: (§1) Recombinant human PD-L1 Fc chimera (Sino Biological, cat #10084-H02H), recombinant cynomolgous monkey PD-L1 Fc chimera (Sino Biological, cat #90251-C02H), recombinant mouse PD-L1 Fc chimera (Sino Biologicals, cat #50010-M02H) and recombinant human PD-L2 Fc chimera protein (Sino Biological, cat #10292-H02H) were coated directly onto the ELISA plates at 1 ug/mL by overnight incubation at 4° C. The plates were washed 3× with PBS 0.05% TWEEN® and dried by tapping several times on paper towels. All the plates were blocked with 200 uL of 1% milk for 1 hr at RT. […] Fifty μL of the diluted antibodies were added to the respective wells in all the plates. Positive control antibody (mouse anti-human PD-L1, 29E.2A3, (BioLegend, cat #329702) and its isotype control mouse IgG2b k (BioLegend, cat #400302) were serially diluted 3-fold in 1% milk starting at 3 ug/mL to 0.1 ng/mL and 50 uL of the titrated antibodies were added to their respective plates/wells. Similarly rat anti mouse PD-L1 (BioLegend, cat #124302) and rat IgG2b isotype (BioLegend, cat #400622), anti-human PD-L2 (BioLegend, cat #345502) with mouse IgG1 isotype (BioLegend, cat #4011402) were titrated as above and added to its respective plates/wells. The plates were incubated for 1 hr at RT. […] For the control wells, appropriate secondary antibodies, goat anti mouse HRP (Southern Biotech, cat #1033) and mouse anti rat HRP (Southern Biotech, cat #3070-05), were diluted and incubated as above. After repeating the wash and drying step, the plates were developed for 20-30 min with 50 uL TMB substrate (BD OPTEIA®, cat #555214). The reaction was stopped with 50 uL of 2N H2SO4 and absorbance at 450 nm was read on a SPECTRAMAX® Gemini™ spectrophotometer.

[5] = biological target: T4, recombinant cynomolgus monkey PD-L1 Fc chimera (Sino Biological, cat #90251-C02H) (cynomolgus monkey, UniProt G7PSE7 19-239); test: ELISA on directly coated cynomolgus PD-L1 Fc chimera (1 ug/mL), detection anti-human kappa light chain-HRP
T4 construct: also called Cyno PD-L1; Fc part of the bought chimera not given
Experimental: as §1

[6] = biological target: T1, recombinant human PD-L2 Fc chimera …; test: ELISA on directly coated human PD-L2 Fc chimera (1 ug/mL), detection anti-human kappa light chain-HRP
Experimental: as §1

[7] = biological target: T2, human PD-L1 expressed on the cell …; test: flow cytometry competition on CHO cells expressing human PD-L1; cells pre-incubated with unlabeled antibody, then Alexa Fluor 647-labeled 3C5 (1 µg/mL)
Experimental: (§2) Antibody cross-blocking analysis was conducted by the following method. […] Fluorescent staining intensities were determined using the FACSCalibur™ system. Competition of by the identical antibody was a positive control while the lack of competition by the irrelevant antibody was a negative control.

[8] = biological target: T2, human PD-L1 expressed on the cell …; test: flow cytometry competition on CHO cells expressing human PD-L1; cells pre-incubated with unlabeled antibody, then Alexa Fluor 647-labeled S70 (1 µg/mL)
Experimental: as §2

T2 sequence (Q9NZQ7 19-290): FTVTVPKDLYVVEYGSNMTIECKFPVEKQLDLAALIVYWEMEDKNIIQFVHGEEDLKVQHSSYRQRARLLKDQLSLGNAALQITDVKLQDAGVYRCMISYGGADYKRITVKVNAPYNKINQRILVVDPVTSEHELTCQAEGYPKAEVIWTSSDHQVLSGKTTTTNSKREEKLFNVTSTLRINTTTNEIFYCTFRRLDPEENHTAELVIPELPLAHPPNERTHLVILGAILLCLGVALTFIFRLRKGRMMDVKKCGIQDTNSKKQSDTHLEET
T3 sequence (Q9EP73 19-238, stated change not applied): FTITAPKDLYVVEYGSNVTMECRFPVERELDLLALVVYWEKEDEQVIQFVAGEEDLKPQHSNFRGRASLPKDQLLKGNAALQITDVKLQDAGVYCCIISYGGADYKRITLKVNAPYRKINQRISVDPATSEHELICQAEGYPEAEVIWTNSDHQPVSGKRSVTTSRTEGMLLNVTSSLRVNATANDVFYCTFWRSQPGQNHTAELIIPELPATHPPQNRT
T4 sequence (G7PSE7 entry or part of it C02H C02H): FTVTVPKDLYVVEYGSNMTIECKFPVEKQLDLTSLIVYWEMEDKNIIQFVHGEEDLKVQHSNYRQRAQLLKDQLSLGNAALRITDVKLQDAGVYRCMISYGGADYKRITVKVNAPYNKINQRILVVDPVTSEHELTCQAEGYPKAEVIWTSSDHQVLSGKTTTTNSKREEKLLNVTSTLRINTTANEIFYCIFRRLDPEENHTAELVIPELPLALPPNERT

Row | EC50, PD-1/PD-L1 blockade (PDL1 Blockade, luciferase signal) [1] [pM] | EC50 in the PD-1/PD-L1 blockade assay (luciferase reporter activity, 4 parameter curve fit) [2] [µM] | EC50, PD-1/PD-L1 blockade (% PDL1 Blockade, NFAT-luciferase reporter) [3] [pM] | binding result [4] | EC50 (read off the curve) [5] [ng/mL] | binding result [6] | IC50 (read off the curve) [7] [µg/mL] | IC50 (read off the curve) [8] [µg/mL] | Binder
1 | 214 | – | – | – | – | – | – | – | h3C5H3-h3C5L2 (humanized 3C5, IgG) (antibody, V domains shown) VH: QVQLQESGPGLVKPSETLSITCTVSGFSLTSYDISWVRQPPGKGLEWLGVIWTGVGTNYNPSFKSRLTISKDTSKNQVSLKMSSLTAADTAVYYCVRDPYYYGMDYWGQGTLVTVSS VL: DIQMTQSPSSLSASVGDRITITCRASQDISIWLSWYQQKPGKAPKLLIYKASNLHTGVPSRFSGSGSGTDFTLTISSLQPEDFATYYCLQSQSFPRTFGQGTKLEIKR
2 | 221 | – | – | – | – | – | – | – | h3C5H1-h3C5L1 (humanized 3C5, IgG) (antibody, V domains shown) VH: QVQLQESGPGLVKPSETLSLTCTVSGFSLTSYDISWIRQPPGKGLEWIGVIWTGVGTNYNPSLKSRVTISVDTSKNQFSLKLSSVTAADTAVYYCARDPYYYGMDYWGQGTLVTVSS VL: DIQMTQSPSSLSASVGDRVTITCRASQDISIWLSWYQQKPGKAPKLLIYKASNLHTGVPSRFSGSGSGTDFTLTISSLQPEDFATYYCLQSQSFPRTFGQGTKLEIKR
3 | 381 | – | – | – | – | – | – | – | h3C5H2-h3C5L2 (humanized 3C5, IgG) (antibody, V domains shown) VH: QVQLQESGPGLVKPSETLSLTCTVSGFSLTSYDISWIRQPPGKGLEWLGVIWTGVGTNYNPSLKSRVTISKDTSKNQFSLKLSSVTAADTAVYYCARDPYYYGMDYWGQGTLVTVSS VL: DIQMTQSPSSLSASVGDRITITCRASQDISIWLSWYQQKPGKAPKLLIYKASNLHTGVPSRFSGSGSGTDFTLTISSLQPEDFATYYCLQSQSFPRTFGQGTKLEIKR
4 | 296 | – | – | – | – | – | – | – | h3C5H4-h3C5L2 (humanized 3C5, IgG) (antibody, V domains shown) VH: QVQLQESGPGLVKPSETLSITCTVSGFSLTSYDISWIRQPPGKGLEWLGVIWTGVGTNYNPSFKSRLTISKDNSKNQVSLKMSSLTAADTAVYYCVRDPYYYGMDYWGQGTLVTVSS VL: DIQMTQSPSSLSASVGDRITITCRASQDISIWLSWYQQKPGKAPKLLIYKASNLHTGVPSRFSGSGSGTDFTLTISSLQPEDFATYYCLQSQSFPRTFGQGTKLEIKR
5 | 94 | 61 | 61 | no binding (tested: 3 ug/mL) | ~7 | no binding (tested: 3 ug/mL) | – | – | 3C5-2G12 IgM antibody (antibody) heavy: QVQLKESGPGLVAPSQSLSITCTVSGFSLTSYDISWVRQPPGKGLEWLGVIWTGVGTNYNSAFMSRLSISKDNSKSQVFLKMNSLQTDDTAMYYCVRDPYYYGMDYWGQGTSVTVSSGSASAPTLFPLVSCENSPSDTSSVAVGCLAQDFLPDSITFSWKYKNNSDISSTRGFPSVLRGGKYAATSQVLLPSKDVMQGTDEHVVCKVQHPNGNKEKNVPLPVIAELPPKVSVFVPPRDGFFGNPRKSKLICQATGFSPRQIQVSWLREGKQVGSGVTTDQVQAEAKESGPTTYKVTSTLTIKESDWLSQSMFTCRVDHRGLTFQQNASSMCVPDQDTAIRVFAIPPSFASIFLTKSTKLTCLVTDLTTYDSVTISWTRQNGEAVKTHTNISESHPNATFSAVGEASICEDDWNSGERFTCTVTHTDLPSPLKQTISRPKGVALHRPDVYLLPPAREQLNLRESATITCLVTGFSPADVFVQWMQRGQPLSPEKYVTSAPMPEPQAPGRYFAHSILTVSEEEWNTGETYTCVVAHEALPNRVTERTVDKSTGKPTLYNVSLVMSDTAGTCY light: DIQMNQSPSSLSASLGDTITITCRASQDISIWLSWYQQKPGNIPELLIYKASNLHTGVPPRFSGSGSGTDFTLTISSLQPEDIATYYCLQSQSFPRTFGGGTKLEIKRTVAAPSVFIFPPSDEQLKSGTASVVCLLNNFYPREAKVQWKVDNALQSGNSQESVTEQDSKDSTYSLSSTLTLSKADYEKHKVYACEVTHQGLSSPVTKSFNRGEC
6 | – | 96 | 96 | no binding (tested: 3 ug/mL) | ~8 | no binding (tested: 3 ug/mL) | – | – | 3C5-2G12 IgM + J antibody (antibody, also called 3C5.2G12 IgM+wtJ; 3C5.2G12 IgM+J chain) heavy: QVQLKESGPGLVAPSQSLSITCTVSGFSLTSYDISWVRQPPGKGLEWLGVIWTGVGTNYNSAFMSRLSISKDNSKSQVFLKMNSLQTDDTAMYYCVRDPYYYGMDYWGQGTSVTVSSGSASAPTLFPLVSCENSPSDTSSVAVGCLAQDFLPDSITFSWKYKNNSDISSTRGFPSVLRGGKYAATSQVLLPSKDVMQGTDEHVVCKVQHPNGNKEKNVPLPVIAELPPKVSVFVPPRDGFFGNPRKSKLICQATGFSPRQIQVSWLREGKQVGSGVTTDQVQAEAKESGPTTYKVTSTLTIKESDWLSQSMFTCRVDHRGLTFQQNASSMCVPDQDTAIRVFAIPPSFASIFLTKSTKLTCLVTDLTTYDSVTISWTRQNGEAVKTHTNISESHPNATFSAVGEASICEDDWNSGERFTCTVTHTDLPSPLKQTISRPKGVALHRPDVYLLPPAREQLNLRESATITCLVTGFSPADVFVQWMQRGQPLSPEKYVTSAPMPEPQAPGRYFAHSILTVSEEEWNTGETYTCVVAHEALPNRVTERTVDKSTGKPTLYNVSLVMSDTAGTCY light: DIQMNQSPSSLSASLGDTITITCRASQDISIWLSWYQQKPGNIPELLIYKASNLHTGVPPRFSGSGSGTDFTLTISSLQPEDIATYYCLQSQSFPRTFGGGTKLEIKRTVAAPSVFIFPPSDEQLKSGTASVVCLLNNFYPREAKVQWKVDNALQSGNSQESVTEQDSKDSTYSLSSTLTLSKADYEKHKVYACEVTHQGLSSPVTKSFNRGEC not shown
7 | 251 | – | 210 | no binding (tested: 3 ug/mL) | ~6 | no binding (tested: 3 ug/mL) | ~0.01 | ~0.02 | 3C5-2G12 IgG1 antibody (antibody, also called 3C5 (IgG); 3C5 antibody (IgG format)) heavy: not shown light: DIQMNQSPSSLSASLGDTITITCRASQDISIWLSWYQQKPGNIPELLIYKASNLHTGVPPRFSGSGSGTDFTLTISSLQPEDIATYYCLQSQSFPRTFGGGTKLEIKRTVAAPSVFIFPPSDEQLKSGTASVVCLLNNFYPREAKVQWKVDNALQSGNSQESVTEQDSKDSTYSLSSTLTLSKADYEKHKVYACEVTHQGLSSPVTKSFNRGEC
